Laboratory results published in patent US20260209350A1 (Alector, published 2026).

What was measured:
mouse TREM2 on cells = biological target: T1, mouse TREM2 on cells (mouse, UniProt Q99NH8 19-227); assay: FACS, mTrem2 cells
T1 construct: whole, on cells; Used for the recombinant protein on BWZ/BW cells (with mouse DAP12) and for the native protein on mouse macrophages and dendritic cells; the cell type stands under assay; also called mTREM2; mTrem2
T1 sequence (looked up): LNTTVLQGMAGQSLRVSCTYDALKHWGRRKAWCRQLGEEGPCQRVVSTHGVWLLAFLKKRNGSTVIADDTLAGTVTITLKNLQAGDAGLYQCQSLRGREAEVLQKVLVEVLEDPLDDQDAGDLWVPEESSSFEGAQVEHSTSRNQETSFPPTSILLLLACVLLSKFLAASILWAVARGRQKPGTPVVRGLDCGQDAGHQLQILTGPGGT

[1] = biological target: T2, human TREM2 Fc fusion protein (human, UniProt Q9NZC2 19-174); assay: ForteBio or MSD-SET, avid
T2 construct: also called hTREM2-Fc; not shown: Fc part not specified
T2 sequence: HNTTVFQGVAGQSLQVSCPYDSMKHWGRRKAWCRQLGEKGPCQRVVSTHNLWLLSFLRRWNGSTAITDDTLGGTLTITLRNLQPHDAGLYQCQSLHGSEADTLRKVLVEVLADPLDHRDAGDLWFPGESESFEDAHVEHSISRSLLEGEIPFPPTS

[2] = biological target: T3, mouse TREM2 Fc fusion protein (mouse, UniProt Q99NH8 19-171); assay: ForteBio or MSD-SET, avid
T3 construct: also called mTREM2-Fc; not shown: Fc part not specified
T3 sequence (looked up): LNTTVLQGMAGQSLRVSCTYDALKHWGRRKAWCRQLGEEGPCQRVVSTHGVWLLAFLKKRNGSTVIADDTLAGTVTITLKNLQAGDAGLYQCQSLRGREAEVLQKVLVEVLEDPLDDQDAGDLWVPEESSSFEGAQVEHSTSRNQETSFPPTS

Binder | MFI (mouse TREM2 on cells) [MFI] | Kd [1] [nM] | binding result [2] | Kd [2] [nM]
Ab79 (antibody, human IgG1, V domains shown, human IgG1) VH: EVQLVESGGGLVQPGGSLRLSCAASGFTFSSYSMNWVRQAPGKGLEWVSYISGSSSTIYYADSVKGRFTISRDNAKNSLYLQMNSLRAEDTAVYYCARGGRRHYGGMDVWGQGTTVTVSS VL: not shown | 738 | 10.7 | no binding | 
Ab73 (antibody, human IgG1, V domains shown, human IgG1) VH: EVQLVQSGAEVKKPGESLKISCKGSGYSFTSYWIGWVRQMPGKGLEWMGIIYPGDSDTTYSPSFQGQVTISADKSISTAYLQWSSLKASDTAMYYCARAKMLDDGYAFDIWGQGTMVTVSS VL: EIVMTQSPATLSVSPGERATLSCRASQSVSSNLAWYQQKPGQAPRLLIYGASTRATGIPARFSGSGSGTEFTLTISSLQSEDFAVYYCQQDDNYPYTFGGGTKVEIK | 1120 | 4.1 | no binding | 
Ab27 (antibody, human IgG1, V domains shown, human IgG1) VH: not shown VL: EIVLTQSPATLSLSPGERATLSCRASQSVSSYLAWYQQKPGQAPRLLIYDASNRATGIPARFSGSGSGTDFTLTISSLEPEDFAVYYCQQYNNFPPTFGGGTKVEIK | 2160 | 1.33 |  | 6.39
Ab75 (antibody, human IgG1, V domains shown, human IgG1) VH: not shown VL: EIVLTQSPATLSLSPGERATLSCRASQSVSSYLAWYQQKPGQAPRLLIYDASNRATGIPARFSGSGSGTDFTLTISSLEPEDFAVYYCQQVSNYPFTFGGGTKVEIK | 276 | 5.88 | no binding | 
Ab81 (antibody, human IgG1, V domains shown, human IgG1) VH: QVQLVQSGAEVKKPGSSVKVSCKASGGTFSSYAISWVRQAPGQGLEWMGGIIPIFGTANYAQKFQGRVTITADESTSTAYMELSSLRSEDTAVYYCARDSGNYDYWSGALRYWGQGTLVTVSS VL: EIVLTQSPATLSLSPGERATLSCRASQSVSSYLAWYQQKPGQAPRLLIYDASNRATGIPARFSGSGSGTDFTLTISSLEPEDFAVYYCQQSSNWPWTFGGGTKVEIK | 400 | 10.1 | no binding | 
Ab28 (antibody, human IgG1, V domains shown, human IgG1) VH: not shown VL: EIVLTQSPATLSLSPGERATLSCRASQSVSSYLAWYQQKPGQAPRLLIYDASKRATGIPARFSGSGSGTDFTLTISSLEPEDFAVYYCQQRYLRPITFGGGTKVEIK | 5250 | 0.915 |  | 7.45
Ab80 (antibody, human IgG1, V domains shown, human IgG1) VH: QVQLVQSGAEVKKPGSSVKVSCKASGGTFSSYAISWVRQAPGQGLEWMGGIIPIFGTANYAQKFQGRVTITADESTSTAYMELSSLRSEDTAVYYCARGGGTFWSGSWALYWGQGTLVTVSS VL: EIVLTQSPATLSLSPGERATLSCRASQSVSSYLAWYQQKPGQAPRLLIYDASNRATGIPARFSGSGSGTDFTLTISSLEPEDFAVYYCQQYVNWPFTFGGGTKVEIK | 593 | 5.72 |  | 8.85
Ab61 (antibody, human IgG1, V domains shown, human IgG1) VH: QVQLVQSGAEVKKPGASVKVSCKASGYTFTSYGIHWVRQAPGQGLEWMGWISAYNGNTNYAQKLQGRVTMTTDTSTSTAYMELRSLRSDDTAVYYCARGGVPRVSYFQHWGQGTLVTVSS VL: EIVLTQSPATLSLSPGERATLSCRASQSVSSYLAWYQQKPGQAPRLLIYDSSNRATGIPARFSGSGSGTDFTLTISSLEPEDFAVYYCQQAFNRPPTFGGGTKVEIK | 10500 | 4.61 |  | 
Ab60 (antibody, human IgG1, V domains shown, human IgG1) VH: not shown VL: EIVLTQSPATLSLSPGERATLSCRASQSVSSYLAWYQQKPGQAPRLLIYDASKRATGIPARFSGSGSGTDFTLTISSLEPEDFAVYYCQQRASMPITFGGGTKVEIK |  | 5.59 |  | 
Ab41 (antibody, human IgG1, V domains shown, human IgG1) VH: EVQLLESGGGLVQPGGSLRLSCAASGFTFSTYAMSWVRQAPGKGLEWVSAISGSGGSTYYADSVKGRFTISRDNSKNTLYLQMNSLRAEDTAVYYCARAMARKSVAFDIWGQGTMVTVSS VL: EIVLTQSPATLSLSPGERATLSCRASQSVSSYLAWYQQKPGQAPRLLIYDASNRATGIPARFSGSGSGTDFTLTISSLEPEDFTVYYCQQRYALPITFGGGTKVEIK | 373 | 2.14 |  | 8.64
Ab74 (antibody, human IgG1, V domains shown, human IgG1) VH: not shown VL: EIVLTQSPATLSLSPGERATLSCRASQSVSSYLAWYQQKPGQAPRLLIYDASNRATGIPARFSGSGSGTDFTLTISSLEPEDFAVYYCQQRSTFPITFGGGTKVEIK | 1360 | 9.43 |  | 4.91
Ab25 (antibody, human IgG1, V domains shown, human IgG1) VH: not shown VL: EIVLTQSPGTLSLSPGERATLSCRASQSVSSSYLAWYQQKPGQAPRLLIYGASSRATGIPDRFSGSGSGTDFTLTISRLEPEDFAVYYCQQDDRSPTFGGGTKVEIK | 2500 |  |  | 5.98
Ab29 (antibody, human IgG1, V domains shown, human IgG1) VH: QVQLVESGGGVVQPGRSLRLSCAASGFTFSSYGMHWVRQAPGKGLEWVAVISYDGSNKYYADSVKGRFTISRDNSKNTLYLQMNSLRAEDTAVYYCARGQYYGGSGWFDPWGQGTLVTVSS VL: EIVLTQSPGTLSLSPGERATLSCRASQSVSSSYLAWYQQKPGQAPRLLIYGASSRATGIPDRFSGSGSGTDFTLTISRLEPEDFAVYYCQQPGAVPTFGGGTKVEIK | 4520 | 2.36 |  | 3.27
Ab24 (antibody, human IgG1, V domains shown, human IgG1) VH: not shown VL: DIQMTQSPSSLSASVGDRVTITCRASQSISSYLNWYQQKPGKAPKLLIYAASSLQSGVPSRFSGSGSGTDFTLTISSLQPEDFATYYCQQAFSPPPWTFGGGTKVEIK | 2760 | 0.479 |  | 9.32
Ab85 (antibody, human IgG1, V domains shown, human IgG1) VH: QVQLVESGGGVVQPGRSLRLSCAASGFTFSSYGMHWVRQAPGKGLEWVAVIWYDGSNKYYADSVKGRFTISRDNSKNTLYLQMNSLRAEDTAVYYCAKDLGGYYGGAAYGMDVWGQGTTVTVSS VL: DIQLTQSPSSVSASVGDRVTITCRASQDISSWLAWYQQKPGKAPKLLIYAASSLQSGVPSRFSGSGSGTDFTLTISSLQPEDFATYYCQQEVDYPPLTFGGGTKVEIK | 1120 | 5.72 |  | 2.19
Ab30 (antibody, human IgG1, V domains shown, human IgG1) VH: not shown VL: DIQMTQSPSSLSASVGDRVTITCRASQSISSYLNWYQQKPGKAPKLLIYGASSLQSGVPSRFSGSGSGTDFTLTISSLQPEDFATYYCQQVYITPITFGGGTKVEIK |  | 1.32 | no binding | 
Ab83 (antibody, human IgG1, V domains shown, human IgG1) VH: QVQLQQWGAGLLKPSETLSLTCAVYGGSFSGYYWSWIRQPPGKGLEWIGEIDHSGSTKYNPSLKSRVTISVDTSKNQFSLKLSSVTAADTAVYYCARVGVVVGRPGYSAFDIWGQGTMVTVSS VL: DIQMTQSPSSVSASVGDRVTITCRASQGISSWLAWYQQKPGKAPKLLIYAASSLQSGVPSRFSGSGSGTDFTLTISSLQPEDFATYYCQQRNSLPLTFGGGTKVEIK |  | 8.21 |  | 
Ab82 (antibody, human IgG1, V domains shown, human IgG1) VH: QVQLQESGPGLVKPSQTLSLTCTVSGGSISSGGYYWSWIRQHPGKGLEWIGYIYYSGSTVYNPSLKSRVTISVDTSKNQFSLKLSSVTAADTAVYYCARVSSSWYKAWGQGTMVTVSS VL: DIQMTQSPSSVSASVGDRVTITCRASQGISSWLAWYQQKPGKAPKLLIYAASSLQSGVPSRFSGSGSGTDFTLTISSLQPEDFATYYCQQASTFPITFGGGTKVEIK | 712 | 11 |  | 5.82
Ab86 (antibody, human IgG1, V domains shown, human IgG1) VH: QVQLVESGGGVVQPGRSLRLSCAASGFTFSSYGMHWVRQAPGKGLEWVAVISYDGSNKYYADSVKGRFTISRDNSKNTLYLQMNSLRAEDTAVYYCAKDGVYYGLGNWFDPWGQGTLVTVSS VL: not shown | 355 | 3.89 |  | 6.55
Ab37 (antibody, human IgG1, V domains shown, human IgG1) VH: not shown VL: EIVLTQSPATLSLSPGERATLSCRASQSVSSYLAWYQQKPGQAPRLLIYDASNRATGIPARFSGSGSGTDFTLTISSLEPEDFAVYYCQQRAFLFTFGGGTKVEIK | 1430 | 1.58 | no binding | 
Ab76 (antibody, human IgG1, V domains shown, human IgG1) VH: EVQLVESGGGLVKPGGSLRLSCAASGFTFSSYSMNWVRQAPGKGLEWVSSISSSSSYIYYADSVKGRFTISRDNAKNSLYLQMNSLRAEDTAVYYCARGGGRRGDNNWFDPWGQGTLVTVSS VL: not shown |  | 4.84 |  | 
Ab77 (antibody, human IgG1, V domains shown, human IgG1) VH: QVQLVESGGGVVQPGRSLRLSCAASGFTFSSYGMHWVRQAPGKGLEWVAVISYDGSNKYYADSVKGRFTISRDNSKNTLYLQMNSLRAEDTAVYYCARGPPHEMDYWGQGTLVTVSS VL: not shown | 1650 |  | no binding | 
